The values below come from the nanobody polyreactivity screen of Harvey et al. (2022).

A short description of the series: yeast display, Sf9 membrane polyspecificity reagent, FACS + sequencing; frameworks hold sequencing errors. In outline:
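A synthetic nanobody library was expressed on Saccharomyces cerevisiae BJ5465 by galactose induction for 36–48 hours. The library was stained for 1 hour at 4 °C with 10% biotinylated, detergent-solubilized Sf9 membrane reagent and enriched with streptavidin microbeads before FACS. Low and high (top ~1%) gates were set on anti-HA fluorescence for expression and streptavidin fluorescence for reagent binding, and each polyreactivity label reflects the gate of origin.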
Turning to “QVQLVESGGGLVQAGGSLRLSCAASGFTFRWYAMGWYRQAPGKERELVAAITHSGGSTYYADSVKGRFTISRDNAKNTVYLQMNSLKPEDTAVYYCAAGYIRKYSAFRYNYWGQGTQVTVSS”, the “polyreactivity (PSR sort gate)” value was “high polyreactivity”.
For the sequence “QVQLVESGGGLVQAGGSLRLSCAASGFTFRWYAMGWYRQAPGKERELVADITRHGGSTYYADSVKGRFTISRDNAKNTVYLQMNSLKPEDTAVYYCAKQNETPWQAYYFDWPEFDYWGQGTQVTVSS”, the “polyreactivity (PSR sort gate)” value is listed as “low polyreactivity”.
The same measure for “QVQLVESGGGLVQAGGSLRLSCAASGFTFRWYAMGWYRQAPGKETELVAAISRDGSTNYADSVKGRFTISRDNAKNTVYLQMNSLKPEDTAFYYCATDSYPWGRSTGWRKQKGYYWGQGTKVTVSS”: “high polyreactivity”.
As for “QVQLVESGGGLVQAGGSLRLSCAASGFTFRWYDMGWYRQAPGKERELVAVISRSGGRTYYADSVKGRFTISRDNAKNTVYLQMNSLKPEDTAVYYCAADWWGYDGRYDYWGQGTQVTVSS”, the “polyreactivity (PSR sort gate)” value was “high polyreactivity”.
With “QVQLVESGGGLVQAGGSLRLSCAASGFTFRWYTMGWYRQAPGKERELVAAISWSGTSTYYADSVKGRFTISRDNAKNTVYLQMNSLKPEDTAVYYCAAADFYYTGADDYWGQGTQVTVSS”, the “polyreactivity (PSR sort gate)” value was “high polyreactivity”.
Regarding “QVQLVESGGGLVQAGGSLRLSCAASGFTFRWYTMGWYRQAPGKERELVASINWSTGSTYYADSVKGRFTISRDNAKNTVYLQMNSLKPEDTAVYYCAATAWYNSYFGLDYWGQGTQVTVSS”, the “polyreactivity (PSR sort gate)” value is “high polyreactivity”.
Consider “QVQLVESGGGLVQAGGSLRLSCAASGFTFRYNAMGWYRQAPGKERELVAAITNSGGGTYYADSVKGRFTISRDNAKNTVYLQMNSLKPEDTAVYYCNAKRTNRYVWGKYDYWGQGTQVTVSS”, for which the “polyreactivity (PSR sort gate)” value is given as “high polyreactivity”.
Consider “QVQLVESGGGLVQAGGSLRLSCAASGFTFRYNAMGWYRQAPGKERELVASITYSGGTTTYADSVKGRFTISRDNAKNTVYLQMNSLKPEDTAVYYCAARGYFSGYRVYYWGQGTQVTVSS”, for which the “polyreactivity (PSR sort gate)” value was “high polyreactivity”.
Turning to “QVQLVESGGGLVQAGGSLRLSCAASGFTFRYYAMGWDRQAPGKERDWVAAITRRGGSTYYSDSVKGRFTISRDNAKNTVYLLMNSLKPEDTAVYYCAASLWTTSADYDYWGQGTQVTVSS”, the “polyreactivity (PSR sort gate)” value is “high polyreactivity”.
As for “QVQLVESGGGLVQAGGSLRLSCAASGFTFRYYAMGWYRQAAGKDRELVAAISSGGRTYYADSVKGRFKISRDNAKNTVYLQMNSLKPADTAVYYCNASRHFRRVEYDYWGQGTQVTVSS”, the “polyreactivity (PSR sort gate)” value is on record as “high polyreactivity”.
Consider “QVQLVESGGGLVQAGGSLRLSCAASGFTFRYYAMGWYRQAPGKERELVAAIDWSGGSTYYADSVKGRFTISRDNAKNTVYLQMNSLKPEDTAVYYCNAVLVPREYYSWGQGTQVTVSS”, for which the “polyreactivity (PSR sort gate)” value was “low polyreactivity”.
As to “QVQLVESGGGLVQAGGSLRLSCAASGFTFRYYAMGWYRQAPGKERELVAAISKSGGSTYYADSVKGRFTISRDNAKNTVYLQMNSLKPEDTAVYYCAARNWFSYYQIMDYWGQGTQVTVSS”, the “polyreactivity (PSR sort gate)” value is listed as “high polyreactivity”.
On to “QVQLVESGGGLVQAGGSLRLSCAASGFTFRYYAMGWYRQAPGKERELVAAISKSGGSTYYADSVKGRFTISRDNAKNTVYLQMNSLKPEDTGVFYCAADYAHIGYDYDYWGQGTQVTVSS”, for which the “polyreactivity (PSR sort gate)” value is “high polyreactivity”.
As for “QVQLVESGGGLVQAGGSLRLSCAASGFTFRYYAMGWYRQAPGKERELVAAISRSDSRTYADSVKGRFTISRDNAKNTVYLQMTSLNPEDTAVYYCAARIRPLYANVRYGYWGQGTQVTVSS”, the “polyreactivity (PSR sort gate)” value is “high polyreactivity”.
As for “QVQLVESGGGLVQAGGSLRLSCAASGFTFRYYAMGWYRQAPGKERELVAAISSRGGTTYYADSVKGRFTISRDNAKNTVYLQMNSLKPEDTAVYYCAAVRPPSYYYWGQGTQVTVSS”, the “polyreactivity (PSR sort gate)” value is listed as “high polyreactivity”.
In the case of “QVQLVESGGGLVQAGGSLRLSCAASGFTFRYYTMGWYRQAPGKEREFVAAIRGGGSSTYYADSVKGRFTISRDNAKNTVYLQMTSLKPEDTAVYSCAAVTSQLYGYRYYYGGQGTQVTVSS”, the “polyreactivity (PSR sort gate)” value was “high polyreactivity”.
As for “QVQLVESGGGLVQAGGSLRLSCAASGFTFRYYTMGWYRQAPGKERELVASISRRGGSTYYADSVKGRFTISRDNAKNTVYLQMNSLKPEDTAVYYCNTLSQVFASRAPKFDYWGHGTQVTVSS”, the “polyreactivity (PSR sort gate)” value is “high polyreactivity”.
The same measure for “QVQLVESGGGLVQAGGSLRLSCAASGFTFSDNAMGWYRQAPGKDRELVAAISRSGGNTHYADSVKGRFTISRDNAKNTVYFQMNSLKPEDTAVYYCAARVQGRGYGYYYWGQGTQVSVSS”: “high polyreactivity”.
With “QVQLVESGGGLVQAGGSLRLSCAASGFTFSDNAMGWYRQAPGKERELVAAISRSGGRTYYADSVKGRFTISRDNAKNTVYLQMNSLKPEDTAVYYCAAYQYGMDYWGQGTQVTVSS”, the “polyreactivity (PSR sort gate)” value is “high polyreactivity”.
On to “QVQLVESGGGLVQAGGSLRLSCAASGFTFSENAMGWYRQAPGKERELVADITNGASTNYADSVKGRFTISRDNEKNTVYLLMNSLKPEDTAVYYCATDSYPGLNPDFDYWGLGTQVTVSS”, for which the “polyreactivity (PSR sort gate)” value is “low polyreactivity”.
The same measure for “QVQLVESGGGLVQAGGSLRLSCAASGFTFSFYAMGWYRQAPGKERELVATIRSGGRTYYADSVKGRFTISRDNAKNTVYLQRNSLKPEDTAVYYCAADDHYGRGFQYYYWGQGTQVTVSS”: “high polyreactivity”.
For the sequence “QVQLVESGGGLVQAGGSLRLSCAASGFTFSGYAMGWYRHAPGKERELVAAISSRGGRTYYADSVKGRFTISRDNAKNTVYLQMNSLKPEDTAVYYCAARSRRTDNSVQFDYWGQGTQVTVSS”, the “polyreactivity (PSR sort gate)” value is recorded as “high polyreactivity”.
“QVQLVESGGGLVQAGGSLRLSCAASGFTFSGYAMGWYRQAPGKERELVAASTRRTGTTYYADSVKGRFTISRDNAKNTVYLQMNSLKPEDTAVYYCNKGYPSPPAGEYGYWGQGTQVTVSS”: the “polyreactivity (PSR sort gate)” value is on record as “high polyreactivity”.
Regarding “QVQLVESGGGLVQAGGSLRLSCAASGFTFSGYDMGWSRQAPGKERELVAGISSGGVSTTYADSVKGRFTISRDNAKNTVYLQMNSRKPEDTAVYYCNAEWTSFDWGQGTQVTVSS”, the “polyreactivity (PSR sort gate)” value was “low polyreactivity”.
Consider “QVQLVESGGGLVQAGGSLRLSCAASGFTFSGYDMGWYRPAPGKERELVAGISSGGVSTTYADSVKGRFTISRDNAKNTVYLQMNSLKPEDTAVYYCNAEWTSFDWGQGTQVTVSS”, for which the “polyreactivity (PSR sort gate)” value is recorded as “low polyreactivity”.
The same measure for “QVQLVESGGGLVQAGGSLRLSCAASGFTFSIYAMGWYRQAPGKERELVAAISGRGSSTYYADSVKGRFTISRDNAKNTVYLQMNSLKPEDTAVYYCKKFHHAYFSSVYSYAGGYWGQGTQVTVSS”: “high polyreactivity”.
Regarding “QVQLVESGGGLVQAGGSLRLSCAASGFTFSKYAMGCSRQAPGKETELVAAISRSAGSTYYADSVKRRFTISREYAKNTVYLQMNSLKPEDTAVYYCARDNPRRPSGYNYSGQGTQVTVSS”, the “polyreactivity (PSR sort gate)” value is given as “high polyreactivity”.
As for “QVQLVESGGGLVQAGGSLRLSCAASGFTFSKYAMGWYRQAPGKEREFVAAISSRGGRTYYADSVKGRFTISRDNAKNTVYLQMNSLKPEDTAVYYCAVDVHLVTEYDYWGQGTQVTVSS”, the “polyreactivity (PSR sort gate)” value is “high polyreactivity”.
The result for “QVQLVESGGGLVQAGGSLRLSCAASGFTFSLYAMGWYRQAPGKERELVARISDSGGGTYYADSVKGRFTISRDNAKNTVYLQMNSLKPEDTAVYYCAAVSVWYVTSTSYRYWRYDYWGQGTQVTVSS” reads “high polyreactivity”; that for “QVQLVESGGGLVQAGGSLRLSCAASGFTFSNNAMGRYRQAPGKEREFVAAISGTGGSTYYADSLKGRFTISRDNANNTVYLQMNSLKPEDTAVYYCARRRTYPPGRYYYWGQGTQETVSS”, “high polyreactivity”.
Turning to “QVQLVESGGGLVQAGGSLRLSCAASGFTFSNYAMGWYRQAPGKERELVAAITGSGGSTFYADSVKGRFTISRDNAKNTVYLQMNSLKPEDTAVYYCAAYYWSSKYDYWGQGTQVTVSS”, the “polyreactivity (PSR sort gate)” value is recorded as “high polyreactivity”.
Take “QVQLVESGGGLVQAGGSLRLSCAASGFTFSPNAMGGYRQAPGKERELVAAISKRGASTYYADSVKGRFTISRDNAKNTVYLQMNSLKPEDTAVYYCNVGASARKPYDYWGQGTQVTVSS”: the “polyreactivity (PSR sort gate)” value was “high polyreactivity”.
For the sequence “QVQLVESGGGLVQAGGSLRLSCAASGFTFSPNAMGWSTQAPGQEREVVAAITSGGNTYADSVKGRFTISRDNAKNSVYFQMNSLKPDDNAVYYCAKGEGYWYIARYLPVGYGYWGQGTQVTVSS”, the “polyreactivity (PSR sort gate)” value is given as “low polyreactivity”.
The result for “QVQLVESGGGLVQAGGSLRLSCAASGFTFSPYTMGWYRQAPGKERELVATIRYDGTSTYYADSVKGRFTISRDYAKNTVYLQMNSLKPEDTAVYFCAADIWRVYSTFYYWGQGTQVTVSS” reads “low polyreactivity”; that for “QVQLVESGGGLVQAGGSLRLSCAASGFTFSRNAMGWYRQAPGKERELVAAIDSGGSTDYADSVKGRFTISRDNAKNTVYLQMNSLKPEDTAVYYCAIASSATRYVQLRQDYDYWGQGTQVTVSS”, “low polyreactivity”.
With “QVQLVESGGGLVQAGGSLRLSCAASGFTFSRNAMGWYRQAPGKERELVAAISGRTGTTYYADSVKGRFTISRDNAKNTVYLQMNSLKTVDTAVYYCAKSSGRYRSDYWGQGTQVTVSS”, the “polyreactivity (PSR sort gate)” value is reported as “high polyreactivity”.
In the case of “QVQLVESGGGLVQAGGSLRLSCAASGFTFSRNAMGWYRQAPGKERELVAAITSRGGSTYYADSVKGRFTISRDNAKNTVYLQMNSLKPEDTAVYYCNAKLISGIYTADSRSRIYDYWGQGTQVTVSS”, the “polyreactivity (PSR sort gate)” value is given as “high polyreactivity”.
The same measure for “QVQLVESGGGLVQAGGSLRLSCAASGFTFSRNVLGWYRQAPGKERELIAAITTSYGGTYYADSVKGRFTISRDNAKNTVYLQMNSLKPEDTAVYYCATRYYPNTSYEYYYWGQGTQLTVSS”: “low polyreactivity”.
As to “QVQLVESGGGLVQAGGSLRLSCAASGFTFSRYAMGWYRQAPGKERELVAAITASGGTTYYADSVKGRFTISRDNAKNTVYLQMNSLKAEDTAVYYCNALYYYLYGYDYWGQGTQVTVSS”, the “polyreactivity (PSR sort gate)” value is reported as “high polyreactivity”.
Regarding “QVQLVESGGGLVQAGGSLRLSCAASGFTFSSNAMGWYRQAPGKQRELVAAISKGGGSTYYADSVKGRFTISRDNAKNTGYLQMNSLKPEDTAVYYCAKEYDTYAYTYPYNYWGQGTQVTVSS”, the “polyreactivity (PSR sort gate)” value is reported as “high polyreactivity”.
